In this test the target is J1a DBLβ domain (wild type) (Plasmodium falciparum). Kind of test: SPR. For orientation: Surface plasmon resonance follows binding to a sensor surface in real time, without labels.

B1: ICAM-1^D1D5-Fc (Fc fusion)
chain: QTSVSPSKVILPRGGSVLVTCSTSCDQPKLLGIETPLPKKELLLPGNNRKVYELSNVQEDSQPMCYSNCPDGQSTAKTFLTVYWTPERVELAPLPSWQPVGKNLTLRCQVEGGAPRANLTVVLLRGEKELKREPAVGEPAEVTTTVLVRRDHHGANFSCRTELDLRPQGLELFENTSAPYQLQTFVLPATPPQLVSPRVLEVDTQGTVVCSLDGLFPVSEAQVHLALGDQRLNPTVTYGNDSFSAKASVSVTAEDEGTQRLTCAVILGNQSQETLQTVTIYSFPAPNVILTKPEVSEGTEVTVKCEAHPRAKVTLNGVPAQPLGPRAQLLLKATPEDNGRSFSCSATLEVAGQLIHKNQTRELRVLYGPRLDERDCPGNWTWPENSQQTPMCQAWGNPLPELKCLKDGTFPLPIGESVTVTRDLEGTYLCRARSTQGEVTRKVTVNVLSPRYE
The term Kd denotes the free concentration of one partner at which half of the binding sites on the other are occupied at equilibrium, for simple one-to-one binding. Low readings indicate a tighter complex, high ones a looser complex. In turn, B1 registered a Kd of 262 nM.

The record behind these values is PMC6778195 (2019).
